Assay [1] has as its target T1, HLA-A2 on T2 cells pulsed with NY-ESO-1:157-165, wt peptide (C165) (human).
T1 construct: also called T2 Pulsed NY-ESO-1_157-165
Briefly: flow cytometry, peptide-pulsed T2 cells. (In general: In flow cytometry, cells or beads pass a laser one at a time.)

In assay [2] the target is T1, HLA-A2 on T2 cells pulsed with …. The experiment in a line: flow cytometry, 10 ug/ml, pulsed T2 cells.
Assay [3] deals with HLA-A2 on T2 cells pulsed with GRID1: 7-15 peptide (human). Briefly: flow cytometry, 10 ug/ml, pulsed T2 cells.
Assay [4] addresses HLA-A2 on T2 cells pulsed with EARS2: 306-314 peptide (human). The experiment in a line: flow cytometry, 10 ug/ml, pulsed T2 cells.
The target in assay [5] is HLA-A2 on T2 cells pulsed with ITCH (807-815) peptide (human). Briefly: flow cytometry, 10 ug/ml, pulsed T2 cells.
For assay [6], the target named is HLA-A2 on T2 cells pulsed with MAGEH1: 90-98 peptide (human). The experiment in a line: flow cytometry, 10 ug/ml, pulsed T2 cells.
Assay [7] deals with HLA-A2 on T2 cells pulsed with FBXL22: 4-12 peptide (human). Briefly: flow cytometry, 10 ug/ml, pulsed T2 cells.
Assay [8] concerns the target HLA-A2 on T2 cells pulsed with URB1: 1853-1861 peptide (human). The experiment in a line: flow cytometry, 10 ug/ml, pulsed T2 cells.
The target of assay [9] is T2, monomeric HLA-A2:NY-ESO-1(156-165) (V at position 165) peptide complex, 2906.
T2 construct: also called soluble HLA-A2:NY-ESO-1 peptide complex
The experiment in a line: SPR, 25 C, antibody captured, monomeric complex injected.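 Further: antibody held on sensor chip via immobilized anti-human or anti-mouse Fc antibody, rate constants derived by fitting sensorgrams to a 1:1 binding model.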

Assay [10] deals with HLA-A2 on T2 cells pulsed with ZDHHC1 (376-384) peptide (human). The experiment in a line: flow cytometry, 10 ug/ml, pulsed T2 cells.
The target in assay [11] is T2, monomeric HLA-A2:NY-ESO-1(156-165) (V …). The experiment in a line: SPR, 37 C, antibody captured, monomeric complex injected.
For assay [12], the target named is HLA-A2 on T2 cells pulsed with BCL9L: 1351-1359 peptide (human). Briefly: flow cytometry, 10 ug/ml, pulsed T2 cells.

B1: mAb24958N (antibody, human IgG4 S228P, kappa, V domains shown)
VH: QVQLQESGPGLVKPSQTLSLTCTVSGGSIISDGYYWSWIRQHPGKGLEWIGYVDYSGNTYYNPSLKSRIIMSVDTSKNQFSLKLTSVTAADTAVYFCVREGPLRDAFEIWGQGTMVTVSS
VL: DIQMTQSPSSLSASVGDRVTITCRTSQSISRYLNWYQQKPGKAPKLLIFAASSLQSGVPSRFSGSGSGADFTLTISSLQPEDFATYYCQQSYSTPPITFGQGTRLEIKR
B1: in assay [1], the midpoint of the response, the EC50, lay at 19 nM. In addition, the “ratio of MFI, pulsed to unpulsed” value stood at 98.6 ratio in [2]; 0.7 ratio in assay [3]; 0.6 ratio in assay [4]; 1 ratio in [5]; 0.5 ratio in [6]; 0.5 ratio in [7]. Moreover, the “ratio of MFI, pulsed to unpulsed” value in assay [8] came out at 0.6 ratio. Binding in [9] was characterised by a dissociation constant (Kd) of 2.77 nM. In assay [9], the t½ (commonly how long it takes for the measured level to halve) was 65.4 min.

B2: mAb28105P (antibody, human IgG4 S228P, kappa, V domains shown)
VH: EVQLVESGGGVVQPGGSLRLSCEASGFIFDDYAMHWVRQAPGKGLEWVSLISGDGDIIYYADSVKGRFTISRDNSKNSLYLQMNSLIIEDTALYYCAKDWVFGVVMTHYWYFGLDVWGQGTTVTVSS
VL: DIQMTQSPSSLSASEGDRVTITCRASQSISTYLNWYQQKPGKAPKLLIYGASSLQSGVPSRFSGSGSGTDFTLTISSLQPEDFATYYCQQSYSTPPITFGQGTKVEIKR
With B2, the midpoint of the response in [1], the EC50, lay at 1.8 nM. Moreover, the “ratio of MFI, pulsed to unpulsed” value in assay [2] is 126 ratio; in assay [3] it was 0.7 ratio; in assay [4] it was 0.6 ratio; in [10] it was 0.5 ratio; in assay [5], 1 ratio; in assay [6], 0.5 ratio. Besides, the “ratio of MFI, pulsed to unpulsed” value came to 0.5 ratio in [7] and 0.6 ratio in assay [8]. The results for the dissociation constant Kd in [9] and in assay [11] were 0.386 nM and 0.586 nM, respectively. Moreover, the t½ is 62.8 min in assay [9] and 21.3 min in assay [11].

B3: mAb28035P (antibody, human IgG4 S228P, kappa, V domains shown)
VH: QVQLVQSGAEVMKPGASVKVSCKVSGYTLSDLSMHWVRQAPGKGLEWMGGFDFEHGKTIYAQKFQGRVTMTEDTSTDTTYMELSSLRSEDTAVYYCAKVPNWGFFDYWGQGTLVTVSS
VL: not shown
Take B3: a half-maximal effect in [1] (EC50) was put at 2.7 nM. In addition, the “ratio of MFI, pulsed to unpulsed” value in [2] was 131 ratio; in assay [12], 170 ratio; in [3], 1.4 ratio; in assay [4], 0.6 ratio; in assay [10] it was 0.9 ratio; in assay [5], 1 ratio. The “ratio of MFI, pulsed to unpulsed” value in [6] was determined as 0.4 ratio; in assay [7], 0.5 ratio; in [8], 0.5 ratio. Moreover, the Kd (as a rule, the equilibrium constant for the complex coming apart) in assay [9] amounted to 0.342 nM; in assay [11] it was 0.378 nM. The koff (usually the first-order rate constant of dissociation) in assay [9] is 0.000152 s⁻¹; in [11], 0.000253 s⁻¹. Further, the kon – broadly, a measure of how fast the partners come together – was found to be 445000 M⁻¹ s⁻¹ in [9] and 669000 M⁻¹ s⁻¹ in assay [11]. The figures for the t½ in assay [9] and in assay [11] were 75.9 min and 45.7 min, respectively.

B4: mAb28113P (antibody, human IgG4 S228P, kappa, V domains shown)
VH: EVQLVESGGGVVQPGGSLRLSCAASGFTFDDYAMHWVRQAPGKGLEWVSLISGGGGGTYYSDSVKGRFTISRDTSKDSLYLQMNSLRTEDTALYYCAKDMVFGVVTPYYYFALDVWGQGTTVTVSS
VL: not shown
Regarding B4, the EC50 (as a rule, the concentration giving half of the maximal effect) in [1] was determined as 0.6 nM. Moreover, the “ratio of MFI, pulsed to unpulsed” value in [2] was found to be 115 ratio; in [12], 1 ratio; in [3] it was 0.9 ratio; in assay [4], 0.5 ratio; in assay [5], 0.9 ratio; in [7], 0.5 ratio. Further, the “ratio of MFI, pulsed to unpulsed” value in [8] stood at 0.6 ratio. For the same molecule, the Kd in [9] was determined as 0.639 nM; in [11], 1.94 nM. Besides, the t½ in [9] amounted to 35.5 min; in [11], 7.9 min.

B5: mAb29814P (antibody, human IgG4 S228P, kappa, V domains shown)
VH: QVQLVESGGGVVQPGRSLRLSCVASGFTFSSYGMHWVRQAPGKGLEWVAVIWYVGSNKYYGDSVKGRFTISRDNSKNTLYLQMNSLRAEDTAVYYCARDLIADRPGYYYNGMDVWGQGTTVTVSS
VL: EIVMTQSPVTLFVSPGERATLSCRASQSVNTNLAWYQQQPGQAPRLLIHGASTRPTGVPARFSGSGSGTEFTLIISSLQSEDFAVYYCQQYNNWPPWTFGQGTKVEIKR
Take B5: a half-maximal response in assay [1] (EC50) required 1.1 nM. Further, the “ratio of MFI, pulsed to unpulsed” value in assay [2] came to 124 ratio; in [12], 150 ratio; in [3], 1.6 ratio; in [4] it was 0.6 ratio; in assay [10], 0.6 ratio; in assay [5] it was 0.9 ratio. Moreover, the “ratio of MFI, pulsed to unpulsed” value was 0.4 ratio in [6], 0.5 ratio in assay [7] and 7.9 ratio in [8].

B6: mAb24956N (antibody, human IgG4 S228P, kappa, V domains shown)
VH: EVQLVESGGGVVQPGGSLRLSCAASGFTFDDYAMYWVRQAPGKGLEWVSLISGDGGSMYYADSVKGRFTISRDNSKNSLYLQMNSLRTEDTALYYCAKDMIFYAFWSGYGSSDYYYYVMDVWGQGTTVTVYS
VL: not shown
In turn, B6 had an EC50 in assay [1] of 0.47 nM. For the same molecule, the “ratio of MFI, pulsed to unpulsed” value in [2] turned out to be 125 ratio; in [3], 1 ratio; in assay [4], 0.6 ratio; in assay [5], 0.9 ratio; in assay [7] it was 0.5 ratio; in assay [8], 0.5 ratio. For the same molecule, in assay [9], the Kd stood at 0.387 nM. The molecule further showed a t½ in assay [9] of 31.6 min.

B7: mAbm24955N (antibody, V domains shown)
VH: EVQLVESGGGVVQPGGSLRLSCVASGFTFDDYAMYWVRQVPGKDLEWVSLISGDGDITYYVDSVKGRFTVSRDNNKNSLYLQMKSLRVEDTALYYCAKDMIYYASWSGYGSSDYYYYVMDVWGQGTTVTVSS
VL: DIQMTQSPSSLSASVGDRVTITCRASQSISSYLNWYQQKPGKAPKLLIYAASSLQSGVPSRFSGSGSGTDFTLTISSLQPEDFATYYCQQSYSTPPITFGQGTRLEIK
notes: the prefix mAbm is not explained (perhaps a mouse constant region)
In assay [9], B7 displayed a Kd of 2.27 nM and a t½ of 9 min.

B8: mAb29822P2 (antibody, human IgG4 S228P, kappa, V domains shown)
VH: EVQLVESGGGVVQPGGSLRLSCAVSGFTFDDYAMHWVRQAPGKGLEWVSLISGDGGSTHYADSVKGRFTISRDNSKNSLYLQMNSLRTGDTALYYCAKDMIFAVVITDYHYYGMDVWGQGTTVTVSS
VL: not shown
As to B8, the EC50 in assay [1] was determined as 5.4 nM. In addition, the “ratio of MFI, pulsed to unpulsed” value was 36.7 ratio in assay [2]; 0.8 ratio in [12]; 0.7 ratio in assay [3]; 0.5 ratio in assay [4]; 0.8 ratio in [5].

B9: mAb24959N (antibody, human IgG4 S228P, kappa, V domains shown)
VH: QLQLLESGPGLVKPSETLSLICTVSGGSIRGSSYYWGWIRQPPEKGLEWIGSIYSSGSTYYNPSLKSRVTISADTSKNQFSLKLSSVTAADTAVYYCARHGGITAVQLEFDPWGQGTLVTVSS
VL: DIQMTQSPSSLSASVGDRVTITCQASQDISNYLKWYQQKPGKAPKILIHDASNLEIGVPSRFSGSGAGTDFIFTISSLQPEDIGTYYCQQYDNLPITFGQGTRLEIKR
In the case of B9, in [1], the EC50 came to 1.1 nM. For the same molecule, the “ratio of MFI, pulsed to unpulsed” value in [2] was 131 ratio; in assay [12], 80.7 ratio; in assay [3] it was 3.2 ratio; in [4], 0.6 ratio; in assay [10], 0.4 ratio; in assay [5] it was 0.9 ratio. For the same molecule, the results for the “ratio of MFI, pulsed to unpulsed” value in [6], in assay [7] and in [8] were 0.4 ratio, 0.5 ratio and 0.6 ratio, respectively. In assay [9], this molecule returned a dissociation constant Kd of 1.23 nM. The molecule further yielded a koff in assay [9] of 0.000517 s⁻¹. The molecule further came in with a kon in assay [9] of 421000 M⁻¹ s⁻¹. Further, the t½ in assay [9] worked out at 22.3 min.

B10: mAb28075P (antibody, human IgG4 S228P, kappa, V domains shown)
VH: EVQLVESGGGVVQPGGSLRLSCAASGFTFDDYAMHWVRQAPGKGLEWVSLISGDGDNTYYADSVKGRFTISRDNNKNSLYLQMNSLRTEDTAFYYCAKELIFGKVLHDFYYYVMDVWGQGTTVTVSS
VL: not shown
In assay [1], B10 displayed an EC50 of 0.38 nM. Further, the “ratio of MFI, pulsed to unpulsed” value in assay [2] came to 58.8 ratio; in [12], 1.5 ratio; in assay [3], 1.4 ratio; in [4] it was 0.5 ratio; in [5], 1 ratio; in assay [6], 0.5 ratio. In addition, the “ratio of MFI, pulsed to unpulsed” value in assay [7] and in assay [8] was 0.5 ratio in each case. Moreover, the figures for the Kd in assay [9] and in [11] were 0.388 nM and 1 nM, respectively. Also, the results for the t½ in assay [9] and in [11] were 32.8 min and 9.1 min, respectively.

Values taken from patent US20220251215A1 (Regeneron, published 2022).
